Test results as given in patent US20210355166A1, “[…] METHODS OF USE THEREOF” (priority 2018, published 2021).
Non-standard residues stand in square brackets, D forms with d. Residues, ends and D or L forms follow the SMILES beside them. No end group written: not given here. *: point of attachment. βGlc = OC[C@H]1O[C@@H](*)[C@H](O)[C@@H](O)[C@@H]1O; Dmt = Cc1cc(O)cc(C)c1C[C@H](N)C(=O)O

B1: bilaid B (H-FvVy-OH) (peptide)
peptide: H-F[dV]V[dY]-OH
SMILES: CC(C)[C@H](NC(=O)[C@H](NC(=O)[C@@H](N)Cc1ccccc1)C(C)C)C(=O)N[C@H](Cc1ccc(O)cc1)C(=O)O
B2: bilaid A (H-FvVf-OH; L-Phe-D-Val-L-Val-D-Phe) (peptide)
peptide: H-F[dV]V[dF]-OH
SMILES: CC(C)[C@H](NC(=O)[C@H](NC(=O)[C@@H](N)Cc1ccccc1)C(C)C)C(=O)N[C@H](Cc1ccccc1)C(=O)O
notes: Natural product of Penicillium sp; MST-MF667; made by Fmoc synthesis for the assays; also called 1a; peptide 1a
B3: bilaid C (H-YvVf-OH; L-Tyr-D-Val-L-Val-D-Phe) (peptide)
peptide: YVVF
modifications: D-Val at 2; D-Phe at 4; free C-terminal acid
notes: Natural product of Penicillium sp; MST-MF667; made by Fmoc synthesis; also called 3a; peptide 3a
B4: H-FvVy-NH2 (peptide)
peptide: H-F[dV]V[dY]-NH2
SMILES: CC(C)[C@H](NC(=O)[C@H](NC(=O)[C@@H](N)Cc1ccccc1)C(C)C)C(=O)N[C@H](Cc1ccc(O)cc1)C(N)=O
B5: H-FGVy-NH2 (peptide)
peptide: H-FGV[dY]-NH2
SMILES: CC(C)[C@H](NC(=O)CNC(=O)[C@@H](N)Cc1ccccc1)C(=O)N[C@H](Cc1ccc(O)cc1)C(N)=O
B6: H-FvGy-NH2 (L-Phe-D-Val-Gly-D-Tyr-NH2) (peptide)
peptide: H-F[dV]G[dY]-NH2
SMILES: CC(C)[C@@H](NC(=O)[C@@H](N)Cc1ccccc1)C(=O)NCC(=O)N[C@H](Cc1ccc(O)cc1)C(N)=O
notes: also called 2d; peptide 2d

Columns and labels:
[1] = tested on: C57BL/6 mice; assay: Nociception (analgesia) testing on 54 C hotplate; type: in vivo, mouse; conditions: 54° C. hotplate, s.c.
Description: Experiments were performed under the guidelines of the Australian code of practice for the care and use of animals for scientific purposes (National Health and Medical Research Council, Australia, 7th Edition). Great care was taken to minimise animal suffering during these experiments and to reduce the number of animals used. […] Food and water was available ad libitum. Mice were given at least 7 days to habituate to housing facilities prior to handling, and handled by the experimenter for 4 days prior to testing. […] The experimenter was blind to all drugs tested. Animals were tested on a 54° C. hotplate, with a maximum cut-off time of 20 seconds to prevent tissue damage. Endpoints were hindpaw lick, hindpaw flutter or jump. […] The percentage of maximal possible effects (% MPE) were calculated as follows: % MPE=(test latency−baseline latency)/(cutoff latency−baseline latency)×100%. The cut-off latency was 20 seconds. Significant differences were assessed with a two-way ANOVA and Tukey's post hoc multiple comparisons test. […] Doses were transformed to the logarithm of μmol/kg. A two-way ANOVA was used to compare data at equimolar doses.

[2] = molecular target: T1, human MOPr (hMOPr) (Homo sapiens, UniProt P35372); assay: Inhibition of forskolin induced cAMP formation in HEK cells expressing hMOPr; type: cell-based; conditions: for TetraQ, initial screen % inhibition of forskolin-stimulate cAMP formation in hMOPr HEK cells: 10 um; for activity in cAMP screen: 10 μM
T1 construct: expressed in transfected cells; host or cells: HEK cells
Description: Procedure for measuring the level of intracellular cAMP produced upon modulation of adenylate cyclase activity by G-protein-coupled receptors (GPCRs). To test the functional interaction between opioids, and opioid-like compounds, and specific opioid GPCRs by measuring changes in intracellular cAMP levels relative to basal levels. The assay can measure agonist and antagonist activity on GPCRs by stimulating cells to either increase or decrease intracellular cAMP levels.
The assay is performed in a 384-well plate and each data point is performed in triplicate. The test compounds should be analyzed on the same plate as controls and cAMP standards. The number of compounds to be screened for activity will determine the volume of reagents and cells required for each experiment. The test compounds, controls and cAMP standards can be added to the plate in advance or while the cells are incubating with stimulation buffer. The plate should be sealed with TopSeal adhesive sealing film to avoid evaporation.
Assay background: Detection of cAMP is based on the competition between intracellular cAMP and biotinylated cAMP linked streptavidin-coated donor beads for anti-cAMP conjugated acceptor beads. When the donor and acceptor beads are in close proximity a signal emitted at 520-620 nm is detected using the Envision multilabel plate reader.
Preparation of test peptides: Test peptides are typically tested at a final concentration of 10 μM. As most test peptides are dissolved in 100% DMSO it is recommended that the DMSO concentration is limited to 2% v/v during cell stimulation to ensure maximum cell viability and responsiveness. Prepare 1 mM and 100 μM stock solutions of test peptides in an appropriate diluent and store at 4° C. For a library of peptides this can be performed in 96 well plates sealed with silicon sealing mats. Test peptides are diluted fresh from stock solutions to a working concentration in stimulation buffer with forskolin. It should be noted that as peptides are diluted 1:1 with cells in the assay the working concentration should be twice the final required concentration. It may be necessary to perform assays on compounds freshly diluted from DMSO stocks compounds to avoid experimental variability.
Preparation of cells: For best results cells should be low passage at 70-90% confluence. To prepare cells for the assay remove growth medium, add Versene and then incubate at 37° C. for approximately 5 minutes to allow cells to detach from the tissue culture plastic. Collect cells and centrifuge for 2 minutes at 275×g. Decant the supernatant and resuspend the cell pellet in 1×PBS. Determine the cell concentration using a haemocytometer. Re-centrifuge cells for 2 minutes at 275×g and decant supernatant. Resuspend cells in stimulation buffer to a final concentration of 1-4×10^4 cells per ml. Note that the cells number will influence the cAMP levels prevailing before (basal) and after adenylate cyclase activation. A cell titration should be performed to optimize the difference between basal and stimulation levels of cAMP. Cells are incubated in stimulation buffer for 20 to 30 minutes at 37° C. prior to adding 5 μl to wells containing test and control compounds. Note that cells are not added to the cAMP standards.
1. Add standards (10 μl/well), control compounds (5 μl/well) and test peptides (5 μl/well) into 384-well plates and seal with Top Seal adhesive sealing film. Leave at room temperature until the cell incubation is complete. 2. Add 5 μl cells incubated in stimulation buffer to the wells containing test peptides and control compounds, but not to the standards. Incubate cells and compounds for 30 min at 37° C. 3. Add 10 μl lysis buffer per well. 4. Under subdued lighting add 5 μl acceptor bead solution to each well. Wrap plate in foil and incubate at room temperature with gentle mixing on an orbital shaker for 60 min. 5. […]

[3] = molecular target: T2, human µ-opioid receptor (hMOPr), human recombinant MOPr expressed in HEK-293 cells (human, UniProt P35372 1-400); assay: cell-based or functional assay
[4] = molecular target: T2, human µ-opioid receptor (hMOPr), human …; assay: competition with [3H]DAMGO (0.5 nM), membranes with human recombinant MOPr (HEK-293), filtration and scintillation counting
Description: The specific ligand binding to the receptors is defined as the difference between the total binding and the nonspecific binding determined in the presence of an excess of an unlabelled opioid ligand (naloxone, 10 μM). The results are expressed as a percent of control specific binding ((measured specific binding/control specific binding)×100) obtained in the presence of unlabelled peptides of interest. The IC₅₀ values (concentration causing a half-maximal inhibition of control specific binding) and Hill coefficients (nH) were determined by non-linear regression analysis of the competition curves generated with mean replicate values using Hill equation curve fitting (Y=D+[(A−D)/(1+(C/C₅₀nH)], where Y=specific binding, D=minimum specific binding, A=maximum specific binding, C=compound concentration, C₅₀=IC₅₀, and nH=slope factor).

T1 sequence (P35372 whole entry): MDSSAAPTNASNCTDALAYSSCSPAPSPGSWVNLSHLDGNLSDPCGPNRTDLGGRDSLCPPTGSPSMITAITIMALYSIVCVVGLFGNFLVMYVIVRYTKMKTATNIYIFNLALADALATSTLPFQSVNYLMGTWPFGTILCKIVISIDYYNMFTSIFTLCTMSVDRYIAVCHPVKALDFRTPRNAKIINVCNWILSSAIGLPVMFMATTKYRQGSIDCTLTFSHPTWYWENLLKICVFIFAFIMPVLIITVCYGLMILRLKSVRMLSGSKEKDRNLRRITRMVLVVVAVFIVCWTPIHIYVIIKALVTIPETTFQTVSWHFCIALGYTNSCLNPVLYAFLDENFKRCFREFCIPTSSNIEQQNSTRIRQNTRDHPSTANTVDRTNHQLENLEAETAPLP
T2 sequence (P35372 whole entry): as above

Row | Molecule | TetraQ, initial screen % inhibition of forskolin-stimulate cAMP formation in hMOPr HEK cells [2] | % inhibition of forskolin-stimulate cAMP formation in hMOPr HEK cells (10 um) [3] [%] | other results
1 | 2,6-dimethyl-L-tyrosine-D-Val-L-Val-D-Phe-L-Ser(β-D-Glc)-NH2 ([Dmt][dV]V[dF]S(βGlc)-NH2; N-terminus assumed; SMILES Cc1cc(O)cc(C)c1C[C@H](N)C(=O)N[C@@H](C(=O)N[C@H](C(=O)N[C@H](Cc1ccccc1)C(=O)N[C@@H](CO[C@@H]1O[C@H](CO)[C@@H](O)[C@H](O)[C@H]1O)C(N)=O)C(C)C)C(C)C) [peptide 3h] |  |  | analgesic activity after systemic administration [1]: systemically inactive
2 | C[C@@H](NC(=O)[C@@H](N)Cc1ccc(O)cc1)C(=O)NCC(=O)N(C)[C@@H](Cc1ccccc1)C(=O)NCCO [DAMGO, [D-Ala^2, N-MePhe^4, Gly^5-ol]-enkephalin, reference compound] | DAMGO = 94%) |  | 
3 | CC(C)[C@H](NC(=O)[C@H](NC(=O)[C@@H](N)Cc1ccccc1)C(C)C)C(=O)N[C@H](Cc1ccccc1)C(=O)O [peptide 1a, L-Phe-D-Val-L-Val-D-Phe] (H-F[dV]V[dF]-OH) | 21% |  | activity in cAMP screen [2]: showed activity
4 | CC(C)[C@@H](NC(=O)[C@@H](N)Cc1ccccc1)C(=O)NCC(=O)N[C@H](Cc1ccc(O)cc1)C(N)=O [peptide 2d, L-Phe-D-Val-Gly-D-Tyr-NH2] (H-F[dV]G[dY]-NH2) | 31% |  | 
5 | CC(C)[C@H](NC(=O)[C@H](NC(=O)[C@@H](N)Cc1ccc(O)cc1)C(C)C)C(=O)N[C@H](Cc1ccccc1)C(=O)O [peptide 3a, L-Tyr-D-Val-L-Val-D-Phe] |  |  | activity in cAMP screen [2]: showed activity
6 | H-FGGy-NH2 (H-FGG[dY]-NH2; SMILES NC(=O)[C@@H](Cc1ccc(O)cc1)NC(=O)CNC(=O)CNC(=O)[C@@H](N)Cc1ccccc1) [2f] | 0% |  | 
7 | H-FGVy-NH2 (H-FGV[dY]-NH2; SMILES CC(C)[C@H](NC(=O)CNC(=O)[C@@H](N)Cc1ccccc1)C(=O)N[C@H](Cc1ccc(O)cc1)C(N)=O) [2e] | 0% |  | 
8 | H-FVVY-NH2 [2c] | 0% |  | 
9 | H-FVvf-NH2 [1g] | 0% |  | 
10 | H-FVvf-OH [1c] | 0% |  | activity in cAMP screen [2]: inactive
11 | H-FvVy-NH2 [2b] | 0% |  | activity in cAMP screen [2]: Neither Bilaid B (2a) nor its C-terminal carboxamide analogue (2b) showed activity
12 | H-FvVy-OH (H-F[dV]V[dY]-OH; SMILES CC(C)[C@H](NC(=O)[C@H](NC(=O)[C@@H](N)Cc1ccccc1)C(C)C)C(=O)N[C@H](Cc1ccc(O)cc1)C(=O)O) [2a] | 0% |  | activity in cAMP screen [2]: Neither Bilaid B (2a) nor its C-terminal carboxamide analogue (2b) showed activity
13 | H-fVvF-NH2 [1f] | 0% |  | 
14 | H-fVvF-OH [1b] | 0% |  | activity in cAMP screen [2]: inactive
15 | H-fvVF-OH [1d] | 0% |  | 
16 | B1 |  | 0 | 
17 | B2 |  | 21 | Ki [4]: 3100 nM
18 | B3 |  | 77 | Ki [4]: 210 nM
19 | H-FV[dV][dF]-OH [H-FVvf-OH] |  | 0 | 
20 | FVVF (D-Val at 3; D-Phe at 4; C-terminal amide) [H-FVvf-NH2] |  | 0 | 
21 | H-FVVY-NH2 [H-FVVY-NH2] |  | 0 | 
22 | H-FGG[dY]-NH2 (SMILES NC(=O)[C@@H](Cc1ccc(O)cc1)NC(=O)CNC(=O)CNC(=O)[C@@H](N)Cc1ccccc1) [H-FGGy-NH2] |  | 0 | 
23 | FVVF (D-Phe at 1; D-Val at 3; C-terminal amide) [H-fVvF-NH2] |  | 0 | 
24 | H-[dF][dV]VF-OH [H-fvVF-OH] |  | 0 | 
25 | B4 |  | 0 | 
26 | B5 |  | 0 | 
27 | B6 |  | 31 | Ki [4]: 1600 nM
28 | H-[dF]V[dV]F-OH [H-fVvF-OH] |  | 0 | 
